This series addresses T1, C3-HIS integrase (E. coli minicircle) (Bacteriophage lambda, UniProt P03700 SEQ:1-356).
T1 chain: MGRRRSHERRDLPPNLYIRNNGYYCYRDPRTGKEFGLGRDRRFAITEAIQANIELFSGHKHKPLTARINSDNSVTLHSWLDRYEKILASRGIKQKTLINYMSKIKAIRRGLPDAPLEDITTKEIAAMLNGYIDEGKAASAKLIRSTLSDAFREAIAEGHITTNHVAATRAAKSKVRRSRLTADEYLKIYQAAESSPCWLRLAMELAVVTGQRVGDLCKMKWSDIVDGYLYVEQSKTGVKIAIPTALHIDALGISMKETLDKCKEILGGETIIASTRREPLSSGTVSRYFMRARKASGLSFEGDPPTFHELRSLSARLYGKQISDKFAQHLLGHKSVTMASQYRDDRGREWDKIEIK
The series is described as follows: cell_activity; E. coli TG1 chromosomal attB integration; 27 colonies, ~90% correct. To be noted: tags: His tag. The source says:
The present example follows the methodology depicted in FIG. 2. C3INT-HIS-PET22b(+) was amplified with petF2 (SEQ ID NO: 10) and petR (SEQ ID NO: 11) and the PCR product subsequently intramolecularly ligated to produce a C3INT-HIS minicircle. attP-PET22b(+) was amplified with attP-F (SEQ ID NO: 12) and attPSOE-R (SEQ ID NO: 13) while PET22b(+) was amplified with TEM1prom-F (SEQ ID NO: 14) and TEM1promR (SEQ ID NO: 15) which produced PCR products encoding attP and ampicillin-resistant gene respectively. Splice overlap extension PCR (SOE-PCR) was carried out with these two PCR products using attP-F (SEQ ID NO: 12) and TEM1prom-R (SEQ ID NO: 15). The PCR product was subsequently intramolecularly ligated to produce attP-TEM1 minicircle. 100 ng of C3INT-HIS minicircle and 100 ng attP-TEM1 minicircle were combined and electroporated to 25 μL electrocompetent TG1 cells. The cells were allowed to recover for 1 hr before being plated on varying concentrations of ampicillin-LB agar plates (0.01 mg/mL, 0.02 mg/mL, 0.05 mg/mL, 0.07 mg/mL and 0.1 mg/mL). Incubation was carried out at 37° C. for 12-14 hrs to allow for expression of C3 integrase and chromosomal integration of the ampicillin-resistance cassette by C3 integrase. […]

Experimental findings from patent publication US10344301, “Mutants of the bacteriophage lambda integrase” (AGENCY FOR SCIENCE, TECHNOLOGY AND RESEARCH) are described below.

B1: attB ; attP (dsDNA ; dsDNA)
DNA 1: CTGCTTTTTTATACTAACTTG
DNA 2: CAAGTTAGTATAAAAAAGCAG
DNA 3: CAGCTTTTTTATACTAAGTTG
DNA 4: CAACTTAGTATAAAAAAGCTG
For B1, the binding signal was ~12 fold vs Int-h/218.
